Laboratory results from the supplement of paper PMC10724198.
± gives the standard deviation of the averaged measurements.

Experiments:
Saccharomyces cerevisiae [1] = test: protein stability index of tFT-peptide fusion (C-terminal peptide) (PSI (0-1 scale)); higher = more stable (slower turnover)
Protocol: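 MPS profiling in S. cerevisiae of the tFT-X12 degron library: putative degron peptides plus stable controls, 12 aa, fused to the C-terminus of a sfGFP-mCherry timer. Cells are FACS-sorted into 8 mCherry/sfGFP bins and deep-sequenced. PSI runs from 0 (unstable) to 1 (stable). Backgrounds are wild type, das1Δ and doa10Δ at 30 °C, and wild type, das1Δ, cdc34-1 and cdc53-1 at 37 °C; 2-3 technical replicates each.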

Saccharomyces cerevisiae [2] = test: as above; details: genetic background: wild type; temperature: 30 C
[3] = genetic background: cdc34-1, temperature: 37 C
[4] = genetic background: cdc53-1, temperature: 37 C
[5] = genetic background: das1 deletion, temperature: 30 C
[6] = genetic background: das1 deletion, temperature: 37 C
[7] = genetic background: doa10 deletion, temperature: 30 C
[8] = genetic background: wild type, temperature: 30 C
[9] = genetic background: wild type, temperature: 37 C
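Further: PSI is a weighted mean of sequencing reads over stability bins, variants kept only with over 10 reads, mCherry proximal and sfGFP distal, peptide attached via GGGS linker.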

Row | Sequence | protein stability index (Saccharomyces cerevisiae [1]; [3]) | protein stability index (Saccharomyces cerevisiae [1]; [4]) | protein stability index (Saccharomyces cerevisiae [1]; [5]) | protein stability index (Saccharomyces cerevisiae [1]; [6]) | protein stability index (Saccharomyces cerevisiae [1]; [7]) | protein stability index (Saccharomyces cerevisiae [1]; [8]) | protein stability index (Saccharomyces cerevisiae [1]; [9]) | protein stability index (Saccharomyces cerevisiae [2])
1 | PHRLSRFILRLL | 0.562 ± 0.027 | 0.683 ± 0.014 | 0.65 ± 0.033 | 0.703 ± 0.013 | 0.118 ± 0.0059 | 0.119 ± 0.019 | 0.219 ± 0.015 | 0.194 ± 0.041
2 | PLCLFPPLLVFL | 0.492 ± 0.044 | 0.526 ± 0.034 | 0.411 ± 0.024 | 0.556 ± 0.021 | 0.453 ± 0.022 | 0.387 ± 0.02 | 0.5103 ± 0.0047 | 0.462 ± 0.032
3 | PLFLLTFAITLV | 0.0736 ± 0.0086 | 0.194 ± 0.06 | 0.166 ± 0.024 | 0.277 ± 0.018 | 0.152 ± 0.0066 | 0.146 ± 0.028 | 0.2289 ± 0.00087 | 0.272 ± 0.021
4 | PLLLLLPSLLLV | 0.363 ± 0.027 | 0.413 ± 0.011 | 0.3 ± 0.029 | 0.439 ± 0.021 | 0.149 ± 0.0015 | 0.18 ± 0.017 | 0.248 ± 0.013 | 0.25 ± 0.025
5 | PLRRPSWVVLSS | 0.671 ± 0.024 | 0.7218 ± 0.0037 | 0.638 ± 0.014 | 0.727 ± 0.0099 | 0.357 ± 0.024 | 0.38 ± 0.029 | 0.5802 ± 0.0041 | 0.493 ± 0.0029
6 | PPIPTPSPIPLH | 0.66 ± 0.018 | 0.726 ± 0.0011 | 0.653 ± 0.017 | 0.695 ± 0.021 | 0.667 ± 0.011 | 0.658 ± 0.017 | 0.677 ± 0.015 | 0.7119 ± 0.0055
7 | PPPHPPPATFLS | 0.661 ± 0.029 | 0.692 ± 0.0097 | 0.676 ± 0.02 | 0.729 ± 0.022 | 0.401 ± 0.023 | 0.407 ± 0.021 | 0.596 ± 0.026 | 0.479 ± 0.011
8 | PPPPPPPSSSSL | 0.667 ± 0.041 | 0.735 ± 0.027 | 0.672 ± 0.017 | 0.722 ± 0.011 | 0.674 ± 0.013 | 0.696 ± 0.037 | 0.727 ± 0.03 | 0.388 ± 0.0099
9 | PPTHDSPVWSPS | 0.677 ± 0.06 | 0.721 ± 0.023 | 0.672 ± 0.029 | 0.7438 ± 0.0025 | 0.667 ± 0.017 | 0.687 ± 0.02 | 0.7217 ± 0.0029 | 0.743 ± 0.0086
10 | PPVAYVCHLYVT | 0.589 ± 0.058 | 0.614 ± 0.029 | 0.5 ± 0.017 | 0.6058 ± 0.0045 | 0.309 ± 0.031 | 0.335 ± 0.028 | 0.503 ± 0.013 | 0.428 ± 0.0053
11 | PPVLAPHLCFPP | 0.685 ± 0.008 | 0.736 ± 0.0089 | 0.657 ± 0.0043 | 0.739 ± 0.015 | 0.673 ± 0.028 | 0.675 ± 0.019 | 0.713 ± 0.019 | 0.724 ± 0.018
12 | PRTTHTPLLIAS | 0.566 ± 0.046 | 0.6584 ± 0.003 | 0.54 ± 0.012 | 0.662 ± 0.03 | 0.177 ± 0.012 | 0.205 ± 0.025 | 0.296 ± 0.046 | 0.296 ± 0.021
13 | PSFLAIRVCLLV | 0.0466 ± 0.00074 | 0.0881 ± 0.02 | 0.147 ± 0.034 | 0.211 ± 0.0098 | 0.0853 ± 0.02 | 0.0766 ± 0.01 | 0.0987 ± 0.036 | 0.133 ± 0.021
14 | PSPRLSLPPRLP | 0.631 ± 0.01 | 0.729 ± 0.029 | 0.677 ± 0.016 | 0.731 ± 0.017 | 0.71 ± 0.037 | 0.686 ± 0.024 | 0.6948 ± 0.002 | 0.737 ± 0.022
15 | PSPRRPPRSRFP | 0.651 ± 0.023 | 0.725 ± 0.028 | 0.653 ± 0.0072 | 0.7355 ± 0.0031 | 0.672 ± 0.03 | 0.654 ± 0.037 | 0.701 ± 0.017 | 0.732 ± 0.0084
16 | PSPYSLSPYFLV | 0.678 ± 0.032 | 0.74 ± 0.011 | 0.646 ± 0.013 | 0.7674 ± 0.0074 | 0.255 ± 0.013 | 0.302 ± 0.043 | 0.4902 ± 0.0013 | 0.425 ± 0.044
17 | PSRLSFALLFHL | 0.6483 ± 0.00029 | 0.682 ± 0.017 | 0.645 ± 0.018 | 0.7268 ± 0.0049 | 0.395 ± 0.025 | 0.406 ± 0.039 | 0.545 ± 0.0058 | 0.49 ± 0.025
18 | PTAGFFGLLVLV | 0.361 ± 0.0094 | 0.402 ± 0.035 | 0.294 ± 0.029 | 0.439 ± 0.005 | 0.279 ± 0.0034 | 0.286 ± 0.02 | 0.4087 ± 0.00047 | 0.397 ± 0.005
19 | PVHARYCSLKWA | 0.658 ± 0.037 | 0.741 ± 0.021 | 0.6329 ± 0.0026 | 0.7389 ± 0.0042 | 0.237 ± 0.036 | 0.279 ± 0.013 | 0.5159 ± 0.0024 | 0.373 ± 0.087
